According to US20090170751A1 (published 2009):

Tests used:
Test in all cases: ELISA-type assay, F3 module coated
[1] = target: Recombinant fibronectin module ^3F3 (Homo sapiens (Human), UniProt P02751 810-900)
[2] = target: T1, Recombinant fibronectin modules ^1-2F3 (Homo sapiens (Human), UniProt P02751 608-809)
T1 construct: Expressed with N-terminal His-tag

[3] = target: T2, Recombinant fibronectin module ^1F3 (Homo sapiens (Human), UniProt P02751 608-700)
T2 construct: Expressed with N-terminal His-tag, purified by Ni-NTA and ion-exchange chromatography; also called ^1F3 module

Measured: binding result

T1 sequence (P02751 608-809 limits assumed): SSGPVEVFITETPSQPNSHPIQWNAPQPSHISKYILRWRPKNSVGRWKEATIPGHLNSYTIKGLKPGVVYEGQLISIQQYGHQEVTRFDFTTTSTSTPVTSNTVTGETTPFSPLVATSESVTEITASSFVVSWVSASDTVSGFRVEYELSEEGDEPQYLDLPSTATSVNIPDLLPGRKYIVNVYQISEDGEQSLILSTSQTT
T2 sequence (P02751 608-700 limits assumed): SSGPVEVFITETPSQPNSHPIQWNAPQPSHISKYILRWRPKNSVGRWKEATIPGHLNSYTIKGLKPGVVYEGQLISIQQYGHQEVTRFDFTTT
Sequence of Recombinant fibronectin module ^3F3 (P02751 other isoform, or with tags, fused parts or gaps limits assumed): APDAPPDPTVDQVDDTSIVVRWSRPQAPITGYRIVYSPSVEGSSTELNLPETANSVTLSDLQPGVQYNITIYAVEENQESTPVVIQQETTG

B1: FnbpA peptide D3 (S. aureus fibronectin-binding peptide) (peptide)
peptide: GFNKHTEIIEEDTNKDKPSYQFGGHNSVDFEEDTLPK
notes: domain: D3; also called peptide D3 from FnbpA; D3 fragment of S. aureus FnbpA
no binding: all assays above
